Patent US20230002478A1

Target: biotinylated D614G SARS-CoV-2 spike trimer (SARS-CoV-2) (UniProt P0DTC2)
Assay: AlphaLISA, inhibition of ACE2-muFc / biotinylated spike complex

In the case of “anti-RBD neutralizing monoclonal antibody (human IgG1) from Acro Biosystems (SAD-S35)”, the IC50 is reported as 1.84 nM.
